What was measured:
[1] = target: T1, human FGFR4 (soluble, Part B: SPR and FGFR4 ELISA) (human) (UniProt P22455); assay: SPR (BIAcore-2000), antibody immobilized, human FGFR4 injected
T1 sequence: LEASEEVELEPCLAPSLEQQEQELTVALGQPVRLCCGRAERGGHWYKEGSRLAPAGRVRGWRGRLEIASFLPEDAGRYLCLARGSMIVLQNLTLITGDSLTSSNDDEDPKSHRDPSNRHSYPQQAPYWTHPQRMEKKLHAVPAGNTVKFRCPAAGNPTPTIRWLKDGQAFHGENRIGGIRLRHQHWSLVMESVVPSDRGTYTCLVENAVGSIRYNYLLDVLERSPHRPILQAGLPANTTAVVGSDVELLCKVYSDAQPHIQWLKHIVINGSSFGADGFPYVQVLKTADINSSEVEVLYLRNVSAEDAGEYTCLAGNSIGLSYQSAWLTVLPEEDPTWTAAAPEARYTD

[2] = target: T2, FGFR4 (solid phase receptor-binding assay) (Homo sapiens (Human)) (UniProt P22455); assay: solid phase receptor-binding assay; LD1 titrated, inhibition of FGF19 binding to FGFR4
T2 sequence: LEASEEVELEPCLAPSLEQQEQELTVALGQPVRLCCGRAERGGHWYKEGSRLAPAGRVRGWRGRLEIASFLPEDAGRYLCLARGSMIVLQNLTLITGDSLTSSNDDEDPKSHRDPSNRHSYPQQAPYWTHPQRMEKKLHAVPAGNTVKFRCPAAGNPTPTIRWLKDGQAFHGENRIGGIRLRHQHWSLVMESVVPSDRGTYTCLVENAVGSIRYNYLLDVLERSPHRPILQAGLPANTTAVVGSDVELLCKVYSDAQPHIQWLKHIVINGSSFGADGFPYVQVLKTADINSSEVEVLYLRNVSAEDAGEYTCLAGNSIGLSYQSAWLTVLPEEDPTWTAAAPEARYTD

[3] = target: human FGFR4-FGFR1 chimeric construct (hFGFR4/R1) on BaF3 cells (human) (UniProt P11362); assay: cell-based or functional assay
[4] = target: T2, FGFR4 (solid phase receptor-binding assay) (Homo sapiens (Human)); assay: solid phase receptor-binding assay; LD1 titrated, inhibition of FGF1 binding to FGFR4

B1: chimeric LD1 (chLD1) (antibody, from a related filing, human IgG1, V domains shown)
VH: EVQLQQPGAVLVRPGTSVKLSCKASGYTFTNHWMNWVKQRPGQGLEWIGMIHPSDSETTLDQKFKDKATLTVDKSSSTAYMQLNRPTSEDSAVYYCTRGDISLFDYWGQGTTVTVSS
VL: DIQMTQTTSSLSASLGDRVTITCRTSQDISNFLNWYQQKPDGTFKILISYTSRLHSGVPSRFSGSGSGTDYSLTISTLEQEDFATYFCQQGNALPYTFGGGTKLEIE
**Q.** Which Kd [1] does the source give for B1 here?
**A.** 0.45 nM

**Q.** What about the koff [1] of the same binder?
**A.** 0.000173 s⁻¹

**Q.** What about the IC50 [2] of the same binder?
**A.** 0.102 nM

**Q.** And the inhibition of FGF1-stimulated proliferation of BaF3/FGFR4/R1 cells (5 nM FGF1), IC50 [3]?
**A.** 17.4 nM

**Q.** What about the IC50 [4] of the same binder?
**A.** 0.093 nM
